Assay results taken from publication PMC5595328.

Assays:
[1] = target: VarF ATPase subunit of the VarDEF ABC transporter (Vibrio cholerae (strain CVD101 chromosomal DNA)); assay: SEC; Superdex200 PrepGrade HiLoad 16/60, 20 mM Tris-HCl pH 8.25, 50 mM NaCl, 10% glycerol, 1 ml/minute; Mr from a calibration curve of standards
[2] = system: VarR (Vibrio cholerae O1 biovar El Tor N16961); assay: competition; conditions: 50 mM Tris-HCl pH 7.5, 5 mM EDTA, 1 mM DTT, 100 ug/ml BSA, 5% glycerol, on ice 10 min; 4% polyacrylamide gel
[3] = target: VarG metallo-β-lactamase (Vibrio cholerae (strain CVD101 chromosomal DNA)); assay: AUC
[4] = target: VarG metallo-β-lactamase (Vibrio cholerae (strain CVD101 chromosomal DNA)); assay: AUC; sedimentation velocity, 42,000 rpm, 20°C, 280 nm, SEDFIT c(s, fr) and c(s, M)
[5] = target: VarG metallo-β-lactamase (Vibrio cholerae (strain CVD101 chromosomal DNA)); assay: SEC; Superdex200 PrepGrade HiLoad 16/60, 20 mM Tris-HCl pH 8.25, 50 mM NaCl, 10% glycerol, 1 ml/minute; Mr from a calibration curve of standards
[6] = target: VarG metallo-β-lactamase (Vibrio cholerae (strain CVD101 chromosomal DNA)); assay: intact protein ESI Q-TOF mass spectrometry; putative dimer peak from SEC infused directly, positive ion mode, MaxEnt1 deconvolution; 10 μg/mL in the methods, 50 μg/mL in the legend

“VarF ATPase subunit of the VarDEF ABC transporter (enzyme)” gave a stoichiometry N [1] of 2.

30 bp varR-varG IR was tested, and the binding signal [2] was 1 ng.

With VarG metallo-β-lactamase (enzyme) the stoichiometry N [3] was 2, the stoichiometry N [4] was 2 and the stoichiometry N [5] was 2. For the same substance, the stoichiometry N [6] was 2.
